Experimental data as given in US20220073563A1.

Molecular target: GLP-2R (UniProt O95838)
Assay: cell-based or functional assay

Chain of GLP-2R (O95838 whole entry): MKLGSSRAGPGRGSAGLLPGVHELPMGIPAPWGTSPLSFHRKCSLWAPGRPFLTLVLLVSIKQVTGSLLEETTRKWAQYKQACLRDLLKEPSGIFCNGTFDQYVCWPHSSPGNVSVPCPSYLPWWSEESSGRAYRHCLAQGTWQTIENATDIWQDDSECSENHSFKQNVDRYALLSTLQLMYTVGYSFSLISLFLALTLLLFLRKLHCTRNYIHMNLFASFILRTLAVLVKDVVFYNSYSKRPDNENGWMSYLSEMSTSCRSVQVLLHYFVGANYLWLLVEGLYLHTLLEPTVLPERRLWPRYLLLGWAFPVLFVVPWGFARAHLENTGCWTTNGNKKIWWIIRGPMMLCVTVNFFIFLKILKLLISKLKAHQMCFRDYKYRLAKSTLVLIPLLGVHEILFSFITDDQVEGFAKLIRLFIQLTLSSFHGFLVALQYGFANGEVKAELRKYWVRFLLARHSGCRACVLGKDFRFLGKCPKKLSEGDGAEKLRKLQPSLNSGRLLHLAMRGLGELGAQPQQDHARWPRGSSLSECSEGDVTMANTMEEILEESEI

An EC50, luciferase reporter in GLP-2R/Luc-CHO cells (6 h stimulation) of 4.7 nM was found for “GLP-2 (from UniProt P01275 146-178) (peptide)” in this work.
